Reference: patent publication US9096681B2, “XBP1, CD138, and CS1 peptides” (Dana-Farber Cancer Institute, Inc., priority 2008, dated 2015)

Columns and labels:
[1] = test system: CD3+ T lymphocytes from normal HLA-A2+ donors; assay: Phenotypic analysis of peptide-stimulated T cells (flow cytometry); assay type: cell-based, human; details: after peptide stimulation; for percentage of CD8+ T cells: unstimulated cultures 33%; for percentage of CD4+ T cells: unstimulated cultures 64%
Procedure: Peptide-specific CTL (that is, XBP1, CD138, or CS1-peptide-specific CTL) were generated ex vivo by repeated stimulation of CD3^+ T lymphocytes obtained from normal HLA-A2^+ donors with XBP1, CD138, or CS1-peptide-pulsed antigen-presenting cells (APC), either T2 cells or mDC. In brief, T2 cells were washed and resuspended in serum-free AIM-V medium (Gibco BRL) and pulsed overnight at 37° C. with 50 μg/ml of the appropriate XBP1 or CD138 peptide. Peptide-pulsed APC were washed, counted, irradiated at 10 Gy and used to prime CD3^+ T cells at a 1:40 T2/peptide (stimulator)-to-CD3^+ T cell (responder) ratio in AIM-V medium supplemented with 10% human AB serum (BioWhittaker, Walkersville, Md.). The T cell cultures were restimulated every seven days with irradiated APC/peptide for a total of 4 cycles to generate XBP1 peptide-specific CTL (XBP1-CTL), CD138 peptide-specific CTL (CD138-CTL), or CS1 peptide-specific CTL (CS1-CTL). It is clear from the foregoing that “XBP1-CTL,” “CD138-CTL,” and “CS1-CTL” referred to herein are not clonal (or homogenous) populations. Rather, the XBP1-CTL, CD138-CTL, and CS1-CTL cells are heterogenous populations of lymphocytes comprising XBP1 peptide-, CD138 peptide-, or CS1 peptide-specific CTL along with non-specific CTL, APCs, and other lymphocytes obtained from the normal donors. 50 U/ml of interleukin-2 (IL-2) was added to the cultures two days after the second stimulation. Control T cell cultures (unstimulated with peptide) were maintained in AIM-V medium supplemented with 10% human AB serum containing 50 U/ml IL-2.
To determine the phenotype of the XBP1-CTL, CD4, or CD8 expression by the cells was detected using anti-CD4-PE or anti-CD8-FITC mouse anti-human mAbs. In addition, a variety of other expression markers were detected on the cells using combinations of either FITC-conjugated anti-CD69/PE-conjugated-anti-CD45RO or FITC-conjugated anti-CD45RA-FITC/PE-conjugated anti-CCR7 mouse anti-human mAbs. Alternatively, HLA-A2 expression by U266, McCAR, ML-2 and MM1S cells was determined using an FITC-conjugated anti-HLA-A2 anti-human mAb. After contacting the cells with antibodies for 15 minutes at 4° C., the cells were washed and analyzed using a FACSort™ flow cytometer with CellQuest v2.1 software (Becton Dickinson).
Cytotoxic T lymphocytes (CTL) are defined phenotypically by the expression of distinct cell surface antigens (e.g., CD8). Cell surface antigens can also be used to further define CTL as naïve or activated memory cells. For example, naïve humanCTL can be identified by the presence of CD45RA^+/CCR7^+, whereas activated human memory cells can be identified as CD69^+/CD45RO^+. Flow cytometry was performed on populations of human T cells stimulated with the heteroclitic peptides to determine the percentage of CTL that were naïve or activated memory cells. […] The unstimulated control T cells or CD138-CTL were further examined for naïve (CD45RA^+/CCR7^+) or activated memory (CD69^+/CD45RO^+) cell status.

[2] = biological target: T1, HLA-A2 molecules on the surface of human T2 cells (Homo sapiens, UniProt P04439, D140Y/D185E/D98H/E176V/E277Q/G131W/G231S/I119V/I121R/I166T/I218V/L300P/L318F/N151K/N90K/P208A/P217A/Q86G/Q94H/R138H/R169H/T345S); assay type: binding; details: non-spliced XBP1 peptides (FIG. 1), 50 μg/ml peptide (30 μg/ml influenza peptide), overnight
[3] = test system: CD8+ T cells; assay: Expansion of P2 peptide-specific CS1-CTL (HLA-A*0201 P2-tetramer / anti-CD8 flow analysis); assay type: cell-based, human; details: after the fourth re-stimulation with peptide-presenting dendritic cells
[4] = biological target: T1, HLA-A2 molecules on the surface of human T2 cells; assay: Peptide stability assay (peptide/HLA-A2 binding stability post-Brefeldin A); details: for HLA-A2 binding stability (HLA-A2 up-regulation on T2 cells) versus native counterpart: spliced XBP1 heteroclitic peptides (FIG. 4)
[5] = test system: McCAR cells; assay: CTL proliferation by CFSE tracking, stimulation with McCAR cells; assay type: cell-based, human; details: cultured with McCAR cells, day 4
Procedure: XBP1-CTL or CD138-CTL were washed twice in PBS (Gibco-BRL) and resuspended in RPMI-1640 culture medium at a concentration of 1×10^6 cells/ml. CFSE (Molecular Probes, Eugene, Oreg.) in the form of a 5 mM stock solution in DMSO was added to the CTL to give a final concentration of 5 μM and incubated for 10 minutes at 37° C. in a CO2 incubator protected from light. After incubation, a volume of ice-cold PBS (containing 2% FCS) equivalent to five-times the volume of the CTL cells was added to the cells to quench the reaction. Cells were incubated for 5 minutes on ice, centrifuged and resuspended in fresh PBS (containing 2% FCS) after a total of three washings. CFSE-labeled T cells were adjusted to a concentration of 2×10^6 cells/ml with RPMI culture medium, stimulated with 2×10^5 cells/ml McCAR cells, ML-2 cells, MM1S cells, or no cells. The stimulated CFSE-labeled cells were examined on by FFC analysis day 4.
XBP1-CTL were exposed to carboxyfluoroscein succinimidyl ester (CFSE) as described above. Proliferation of the XBP1-CTL in response to stimulation with various tumor lines was determined by measuring the amount of CFSE in the cells. CFSE is a membrane permeable dye, which is taken up by cells. […] Thus, the number of cell divisions can be determined as the inverse of the concentration of dye in each cell of a population.

GLVGLIFAV (listed as Homo sapiens) [CD138 #2p, native CD138 peptide]
percentage of CD8+ T cells [1]: 82%
percentage of CD4+ T cells [1]: 15%

ILAVLTLQI (listed as Homo sapiens) [XBP1189-197, native non-spliced XBP1 peptide]
affinity for HLA-A2, HLA-A2-mean fluorescence intensity (MFI) [2]: significant affinity for HLA-A2 affinity, although less than that of XBP1184-192

KLLLENQLL (listed as Homo sapiens) [XBP1110-118, native non-spliced XBP1 peptide]
affinity for HLA-A2, HLA-A2-mean fluorescence intensity (MFI) [2]: significant affinity for HLA-A2 affinity, although less than that of XBP1184-192

LLREKTHGL (listed as Homo sapiens) [XBP1117-125, native non-spliced XBP1 peptide]
affinity for HLA-A2, HLA-A2-mean fluorescence intensity (MFI) [2]: significant affinity for HLA-A2 affinity, although less than that of XBP1184-192

RMSELEQQV (listed as Homo sapiens) [XBP193-101, native non-spliced XBP1 peptide]
affinity for HLA-A2, HLA-A2-mean fluorescence intensity (MFI) [2]: significant affinity for HLA-A2 affinity, although less than that of XBP1184-192

SLFVLGLFL (listed as Homo sapiens) [P2, native CS1 peptide]
percentage of cells bound by both HLA-A*0201 P2-tetramer and anti-CD8 antibody [3]: Approximately 4.1%

VLTLQIQSL (ILAVLTLQI; listed as Homo sapiens) [XBP1192-200, native non-spliced XBP1 peptide]
affinity for HLA-A2, HLA-A2-mean fluorescence intensity (MFI) [2]: significant affinity for HLA-A2 affinity, although less than that of XBP1184-192

YILDNLDPV (listed as Influenza virus) [heteroclitic peptide derived from native spliced XBP1 #1p]
HLA-A2 binding stability (HLA-A2 up-regulation on T2 cells) versus native counterpart [4]: did not exhibit a significant increase in HLA-A2 stability over its native counterpart

YLFPQLISV (listed as Homo sapiens) [SP XBP1 #3M, heteroclitic spliced XBP1 367-375 peptide]
time for which higher level of HLA-A2 up-regulation was maintained ([4]; in Brefeldin A after removing unbound peptide (FIG. 4)): 6 h
HLA-A2 binding stability (HLA-A2 up-regulation on T2 cells) versus native counterpart [4]: increase in HLA-A2 up-regulation on T2 cells
percentage of CD69+/CD45RO+ (activated memory) cells ([1]; control T cells 4%): 64%
percentage of CD8+ T cells [1]: 75%
percentage of CD4+ T cells [1]: 18%
CTL proliferation (M1 gated, CFSE) [5]: 42%
